In patent publication US20250101074A1 (Affibody, published 2025):

What was measured:
Experiment in all cases: SPR (Biacore), PEP07843 immobilized, analyte protein injected
[1] = biological target: T1, human IL-17A/F heterodimer (human, UniProt Q16552 20-155; Q96PD4 31-163, limits assumed)
T1 construct: bought; also called hIL-17A/F
T1 sequence (looked up) 1: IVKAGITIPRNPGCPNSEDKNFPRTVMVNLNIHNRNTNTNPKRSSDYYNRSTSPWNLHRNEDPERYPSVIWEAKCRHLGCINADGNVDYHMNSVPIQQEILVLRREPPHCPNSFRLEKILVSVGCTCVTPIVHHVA
T1 sequence (looked up) 2: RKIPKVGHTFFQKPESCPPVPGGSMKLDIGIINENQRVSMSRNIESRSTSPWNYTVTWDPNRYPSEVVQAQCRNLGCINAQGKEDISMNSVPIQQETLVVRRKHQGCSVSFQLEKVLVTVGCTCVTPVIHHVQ
Protocol: (§1) In the binding experiment, HBS-EP was used as running buffer and the flow rate was 30 μl/min. […] The analytes, i.e. the panels of 24 or 12 different proteins, were each diluted in HBS-EP or HBS-EP supplemented with 500 mM NaCl to final concentrations of from 0.4 to 250 nM and injected for 5 min. […] The results were analyzed using the BiaEvaluation software.
(§2) The Z-ABD-Z polypeptides were injected over surfaces containing HSA followed by injection of the analyte proteins.

[2] = biological target: T2, AMBP/Alpha1 microglobulin (UniProt P02760 20-203, limits assumed)
T2 sequence (looked up): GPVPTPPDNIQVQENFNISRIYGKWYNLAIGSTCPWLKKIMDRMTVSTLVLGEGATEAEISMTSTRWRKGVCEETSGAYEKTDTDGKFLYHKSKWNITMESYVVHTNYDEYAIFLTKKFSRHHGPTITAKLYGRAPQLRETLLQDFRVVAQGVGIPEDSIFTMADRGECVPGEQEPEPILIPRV
Protocol: as §1, §2

[3] = biological target: T3, Haptoglobin Human (seems to be beta chain) (human, UniProt P00738 162-406, limits assumed)
T3 sequence (looked up): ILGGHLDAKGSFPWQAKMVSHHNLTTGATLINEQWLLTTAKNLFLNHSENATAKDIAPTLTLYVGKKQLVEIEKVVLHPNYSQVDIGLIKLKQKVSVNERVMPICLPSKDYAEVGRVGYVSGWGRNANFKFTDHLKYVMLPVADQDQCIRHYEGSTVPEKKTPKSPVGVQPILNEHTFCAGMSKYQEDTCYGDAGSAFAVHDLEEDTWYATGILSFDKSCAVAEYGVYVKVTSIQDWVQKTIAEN
Protocol: as §1, §2

Beta-2-microglobulin/B2M = Beta-2-microglobulin/B2M (UniProt P61769 21-119)
Beta-2-microglobulin/B2M, sequence (P61769 21-119 limits assumed): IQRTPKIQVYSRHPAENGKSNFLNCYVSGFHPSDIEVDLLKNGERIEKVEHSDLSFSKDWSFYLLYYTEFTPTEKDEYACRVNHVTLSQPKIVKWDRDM
Protocol: as §1, §2

IL-1R1 = biological target: T4, IL-1R1 (UniProt P14778 18-332, limits assumed)
T4 sequence (looked up): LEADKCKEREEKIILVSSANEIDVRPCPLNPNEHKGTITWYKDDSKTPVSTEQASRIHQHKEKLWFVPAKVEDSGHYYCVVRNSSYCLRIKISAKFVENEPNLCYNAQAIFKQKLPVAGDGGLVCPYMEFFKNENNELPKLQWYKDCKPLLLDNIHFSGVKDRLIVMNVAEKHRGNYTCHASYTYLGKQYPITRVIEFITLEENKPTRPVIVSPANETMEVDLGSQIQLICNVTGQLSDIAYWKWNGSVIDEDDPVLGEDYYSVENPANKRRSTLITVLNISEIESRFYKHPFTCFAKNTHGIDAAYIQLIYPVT
Protocol: as §1, §2

human IL-17A = biological target: T5, human IL-17A (human, UniProt Q16552 20-155)
T5 construct: Peprotech cat. no; 200-17; homodimeric cytokine; biotinylated with Sulfo-NHS-LC-Biotin for the ELISAs; also called hIL-17A; rhIL-17A
T5 sequence: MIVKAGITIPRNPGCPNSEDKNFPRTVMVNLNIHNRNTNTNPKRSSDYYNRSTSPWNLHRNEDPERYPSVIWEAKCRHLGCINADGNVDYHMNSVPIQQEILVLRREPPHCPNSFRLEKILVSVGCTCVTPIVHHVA
Protocol: as §1, §2

[4] = biological target: T6, Alpha-2-HS-glycoprotein (AHSG Human HEK) (human, UniProt P02765 19-367, limits assumed)
T6 sequence (looked up): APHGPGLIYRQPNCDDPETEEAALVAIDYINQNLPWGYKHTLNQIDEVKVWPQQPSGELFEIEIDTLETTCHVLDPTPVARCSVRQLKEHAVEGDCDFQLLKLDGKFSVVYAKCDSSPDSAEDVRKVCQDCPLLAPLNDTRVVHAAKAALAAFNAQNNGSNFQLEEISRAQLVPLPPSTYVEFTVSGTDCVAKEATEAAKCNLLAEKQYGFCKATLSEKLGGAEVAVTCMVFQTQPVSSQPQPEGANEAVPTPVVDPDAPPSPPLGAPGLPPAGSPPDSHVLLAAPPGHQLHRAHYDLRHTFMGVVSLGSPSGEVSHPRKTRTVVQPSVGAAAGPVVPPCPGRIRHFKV
Protocol: as §1, §2

hIL-17B = biological target: T7, hIL-17B (human, UniProt Q9UHF5 21-180)
T7 sequence (looked up): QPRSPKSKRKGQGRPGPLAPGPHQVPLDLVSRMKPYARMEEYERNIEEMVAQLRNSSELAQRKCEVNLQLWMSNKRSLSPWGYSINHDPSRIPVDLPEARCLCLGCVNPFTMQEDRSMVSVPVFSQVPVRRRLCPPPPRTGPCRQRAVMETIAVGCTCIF
Protocol: as §1, §2

B1: ABD variant PEP07843 (designed binder)
chain: GSSLAEAKEAANAELDSYGVSDFYKRLIDKAKTVEGVEALKDAILAALP
binding result [1]: no binding (tested: 50, 250 nM)
binding result [2]: no binding (tested: 50, 250 nM)
binding result [3]: no binding (tested: 50, 250 nM)
binding result (Beta-2-microglobulin/B2M): no binding (tested: 50, 250 nM)
binding result (IL-1R1): no binding (tested: 50, 250 nM)
binding result (human IL-17A): no binding (tested: 2, 10, 50 nM)
binding result [4]: no binding (tested: 50, 250 nM)
binding result (hIL-17B): no binding (tested: 50, 250 nM)
